The target in the experiment is T1, recombinant human PRX1 (Sigma-Aldrich) (human, UniProt Q06830 1-199).
T1 construct: recombinant human peroxiredoxin-1, bought; construct not described; also called recombinant PRX1; source: bought: Sigma-Aldrich
T1 sequence (looked up): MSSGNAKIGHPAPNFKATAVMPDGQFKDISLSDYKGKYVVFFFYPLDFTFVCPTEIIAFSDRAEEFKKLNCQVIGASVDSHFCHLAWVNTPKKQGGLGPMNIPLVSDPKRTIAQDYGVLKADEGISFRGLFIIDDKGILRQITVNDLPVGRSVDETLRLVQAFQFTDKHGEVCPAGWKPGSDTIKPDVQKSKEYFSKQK
The experiment is described as follows: BLI; BLItz; biotinylated fortilin immobilized on streptavidin biosensors (1 μg/mL, 25 mM Tris, 150 mM NaCl, 0.1% Tween-20), then PBS; recombinant PRX1 in solution, 180 s association, 300 s dissociation in PBS; three independent experiments. The note with it: both partners purified. In general terms: Biolayer interferometry detects binding as a change in optical thickness at a sensor tip.

B1: recombinant human fortilin tagged with the Strep-tag II (natural protein, UniProt P13693 1-172, looked up)
chain: MIIYRDLISHDEMFSDIYKIREIADGLCLEVEGKMVSRTEGNIDDSLIGGNASAEGPEGEGTESTVITGVDIVMNHHLQETSFTKEAYKKYIKDYMKSIKGKLEEQRPERVKPFMTGAAEQIKHILANFKNYQFFIGENMNPDGMVALLDYREDGVTPYMIFFKDGLEMEKC
modifications: biotin (biotinylated for the biolayer interferometry)
notes: human fortilin (TCTP) cDNA in the pESG-IBA5 vector; Biotinylated only for the biolayer interferometry; used without biotin in the activity and phosphorylation assays; also called recombinant fortilin; wild-type fortilin; source: 293T cells stably expressing it, purified (Strep-Tactin-Superflow resin)
Take B1: the Kd came out at 125 nM.

Usually Kd stands for the constant that tells how readily two partners part at equilibrium.
